Reference: patent publication US20220162261A1 (published 2022)
Bridge positions count the residues as written; N and C are the ends. Square brackets hold non-standard residues; d marks the D form. Ends that are not written are not given here. Phe(4-COOH) = N[C@@H](Cc1ccc(C(=O)O)cc1)C(=O)O; Phe(4-tBu) = CC(C)(C)c1ccc(C[C@H](N)C(=O)O)cc1; NMeR = CN[C@@H](CCCNC(=N)N)C(=O)O; NMeE = CN[C@@H](CCC(=O)O)C(=O)O; β3hE = N[C@@H](CCC(=O)O)CC(=O)O; DIG = diglycolic acid (linker); Pen = CC(C)(S)[C@H](N)C(=O)O

B1: SEQ ID NO: 1 (peptide)
peptide: Ac-[Pen][NMeR]SDTL[Pen]W[βGlu][dK]-NH2
modifications: disulfide 1-7; not fully specified (residue 10); printed as (Ac Pen N-Me-R S D T L Pen W Beta-E k NH2)2 DIG; also: homodimer: two subunits joined by DIG linker
B2: SEQ ID NO: 31 (peptide)
peptide: Ac-[Pen][NMeR]SDTL[Pen]W[NMeE][dK]-NH2
modifications: disulfide 1-7; not fully specified (residue 10); printed as (Ac Pen N-Me-R S D T L Pen W N-Me-E k NH2)2 DIG, disulfide Pen-Pen; also: dimer, two subunits joined by DIG linker
B3: SEQ ID NO: 91 (peptide)
peptide: Ac-[Pen][NMeR]SDTL[Pen]W[dF][dK]-NH2
modifications: disulfide 1-7; not fully specified (residue 10); printed as (Ac Pen N-Me-R S D T L Pen W f k NH2)2 DIG, disulfide Pen-Pen; also: homodimer via DIG linker
B4: SEQ ID NO: 87 (peptide)
peptide: Ac-[Pen][NMeR]SDTL[Pen]WD[dK]-NH2
modifications: disulfide 1-7; not fully specified (residue 10); printed as (Ac Pen N-Me-R S D T L Pen W D k NH2)2 DIG, disulfide Pen-Pen; also: homodimer: two subunits linked by DIG via D-Lys10 side chain
B5: SEQ ID NO: 71 (peptide)
peptide: Ac-[Pen][NMeR]SDTL[Pen]W[dE][dK]-NH2
modifications: disulfide 1-7; not fully specified (residue 10); printed as (Ac Pen N-Me-R S D T L Pen W e k NH2)2 IDA Biotine, disulfide Pen-Pen; also: homodimer via IDA linker bearing biotin
B6: SEQ ID NO: 94 (peptide)
peptide: Ac-[Pen][NMeR]SDTL[Pen]WP[dK](DIG)-NH2
modifications: disulfide 1-7; also: homodimer (…)2 DIG: the two subunits are joined through the K10 NZ by the DIG linker
B7: SEQ ID NO: 95 (peptide)
peptide: Ac-[Pen][NMeR]SDTL[Pen]WPK(DIG)-NH2
modifications: disulfide 1-7; also: homodimer (…)2 DIG: the two subunits are joined through the K10 NZ by the DIG linker
B8: SEQ ID NO: 70 (peptide)
peptide: Ac-[Pen][NMeR]SDTL[Pen]W[dE][dK]-NH2
modifications: disulfide 1-7; not fully specified (residue 10); printed as (Ac Pen N-Me-R S D T L Pen W e k NH2)2 IDA, disulfide Pen-Pen; also: homodimer via IDA linker
B9: SEQ ID NO: 92 (peptide)
peptide: Ac-[Pen][NMeR]SDTL[Pen]W[dY][dK](DIG)-NH2
modifications: disulfide 1-7; also: homodimer (…)2 DIG: the two subunits are joined through the K10 NZ by the DIG linker
B10: SEQ ID NO: 124 (peptide)
peptide: Ac-[Pen][NMeR]SDTL[Pen]H[dE][dK]-NH2
modifications: disulfide 1-7; not fully specified (residue 10); printed as (Ac Pen N-Me-R S D T L Pen H e k NH2)2 DIG, disulfide Pen-Pen; also: homodimer: two subunits joined by DIG linker
B11: SEQ ID NO: 105 (peptide)
peptide: Ac-[Pen][NMeR]SDTL[Pen]W[Phe(4-COOH)][dK]-NH2
modifications: disulfide 1-7; not fully specified (residue 10); printed as (Ac Pen N-Me-R S D T L Pen W F(4-COOH) k NH2)2 DIG, disulfide Pen-Pen; also: homodimer: two subunits joined by DIG linker
B12: SEQ ID NO: 82 (peptide)
peptide: Ac-[Pen][NMeR]SDTL[Pen]WQ[dK]-NH2
modifications: disulfide 1-7; not fully specified (residue 10); printed as (Ac Pen N-Me-R S D T L Pen W Q k NH2)2 DIG, disulfide Pen-Pen; also: homodimer: two subunits linked by DIG via D-Lys10 side chain
B13: SEQ ID NO: 28 (peptide)
peptide: Ac-[Pen][NMeR]SDTL[Pen][dW]E[dK]-NH2
modifications: disulfide 1-7; not fully specified (residue 10); printed as (Ac Pen N-Me-R S D T L Pen w E k NH2)2 DIG, disulfide Pen-Pen; also: dimer, two subunits joined by DIG linker
B14: SEQ ID NO: 104 (peptide)
peptide: Ac-[Pen][NMeR]SDTL[Pen]W[dH][dK]-NH2
modifications: disulfide 1-7; not fully specified (residue 10); printed as (Ac Pen N-Me-R S D T L Pen W h k NH2)2 DIG, disulfide Pen-Pen; also: homodimer: two subunits joined by DIG linker
B15: SEQ ID NO: 26 (peptide)
peptide: Ac-[Pen][NMeR]SDTL[Pen]HY[dK]-NH2
modifications: disulfide 1-7; not fully specified (residue 10); printed as (Ac Pen N-Me-R S D T L Pen H Y k NH2)2 DIG, disulfide Pen-Pen; also: dimer, two subunits joined by DIG linker
B16: SEQ ID NO: 25 (peptide)
peptide: Ac-[Pen][NMeR]SDTL[Pen]HE[dK]-NH2
modifications: disulfide 1-7; not fully specified (residue 10); printed as (Ac Pen N-Me-R S D T L Pen H E k NH2)2 DIG, disulfide Pen-Pen; also: dimer, two subunits joined by DIG linker
B17: SEQ ID NO: 72 (peptide)
peptide: Ac-[Pen][NMeR]SDTL[Pen]W[dE][dK]-NH2
modifications: disulfide 1-7; not fully specified (residue 10); printed as (Ac Pen N-Me-R S D T L Pen W e k NH2)2 IDA PEG4 Biotine, disulfide Pen-Pen; also: homodimer: two subunits linked by IDA via D-Lys10 side chain, PEG4-Biotine on the linker
B18: SEQ ID NO: 110 (peptide)
peptide: Ac-[Pen][NMeR]SDTL[Pen]W[dW][dK]-NH2
modifications: disulfide 1-7; not fully specified (residue 10); printed as (Ac Pen N-Me-R S D T L Pen W w k NH2)2 DIG, disulfide Pen-Pen; also: homodimer: two subunits joined by DIG linker
B19: SEQ ID NO: 186 (peptide)
peptide: Ac-[Pen][NMeR]SDIL[Pen][Phe(4-tBu)][β3hE][dK]-NH2
modifications: disulfide 1-7; not fully specified (residue 10); printed as (Ac Pen N-Me-R S D I L Pen F(4-tBu) b-H-E k NH2)2 IDA, disulfide Pen-Pen; also: homodimer: two subunits joined by IDA linker
B20: SEQ ID NO: 123 (peptide)
peptide: Ac-[Pen][NMeR]SDTL[Pen]Y[dE][dK]-NH2
modifications: disulfide 1-7; not fully specified (residue 10); printed as (Ac Pen N-Me-R S D T L Pen Y e k NH2)2 DIG, disulfide Pen-Pen; also: homodimer: two subunits joined by DIG linker
B21: SEQ ID NO: 85 (peptide)
peptide: Ac-[Pen][NMeR]SDTL[Pen]WF[dK]-NH2
modifications: disulfide 1-7; not fully specified (residue 10); printed as (Ac Pen N-Me-R S D T L Pen W F k NH2)2 DIG, disulfide Pen-Pen; also: homodimer: two subunits linked by DIG via D-Lys10 side chain
B22: SEQ ID NO: 83 (peptide)
peptide: Ac-[Pen][NMeR]SDTL[Pen]WN[dK]-NH2
modifications: disulfide 1-7; not fully specified (residue 10); printed as (Ac Pen N-Me-R S D T L Pen W N k NH2)2 DIG, disulfide Pen-Pen; also: homodimer: two subunits linked by DIG via D-Lys10 side chain

Target: T1, human α4β7 integrin on cells (human, UniProt P13612 34-1032; P26010 20-798)
T1 construct: whole, on cells; also called α4β7 cell (Hu); RPMI8866 cells
Test: RPMI8866 cell adhesion to MAdCAM-1

| Binder | IC50 [nM] |
| --- | --- |
| B1 | > 50 |
| B2 | > 50 |
| B3 | > 100 |
| B4 | > 25 |
| B5 | > 25 |
| B6 | > 100 |
| B7 | > 100 |
| B8 | > 25 |
| B9 | > 50 |
| B10 | > 100 |
| Ac-[Pen][NMeR]SDTL[Pen]W[dP]K-NH2 (disulfide 1-7; also: homodimer, two subunits linked by DIG at Lys10) [SEQ ID NO: 96] | > 50 |
| B11 | > 50 |
| B12 | > 50 |
| B13 | > 50 |
| B14 | > 100 |
| Ac-[Pen][NMeR]SDTL[Pen]W[dE][dK](Ac) (disulfide 1-7) [SEQ ID NO: 66] | > 10000 |
| B15 | > 100 |
| B16 | > 10 |
| B17 | > 25 |
| B18 | > 10 |
| B19 | > 100 |
| B20 | > 50 |
| Ac-[Pen][NMeR]SDTL[Pen]WE[dK](Ac) (disulfide 1-7) [SEQ ID NO: 65] | > 10000 |
| B21 | ≤ 10 |
| B22 | > 50 |
| Ac-[dK]C[NMeR]SDTLCW[dK]-NH2 (disulfide 2-8 (inferred); also: dimer linked by DIG, attachment not given here) [SEQ ID NO: 4] | > 10 |
